Results reported in publication PMC9519043.

Tests used:
[1] = test system: HCoV 229E virus particle (Human coronavirus 229E (ATCC VR-740)); assay: microfluidic affinity capture, RT-qPCR; conditions: 5' amino C12 linker and TEG spacer 9, 3' inverted dT, SPR (BIAcore T200, […], pH not stated
[2] = test system: HCoV OC43 virus particle (Betacoronavirus 1 HCoV OC43 (ATCC VR-1558)); assay: microfluidic affinity capture, RT-qPCR; conditions: 5' amino C12 linker and TEG spacer 9, 3' inverted dT, SPR (BIAcore T200, […], pH not stated

Sequence: CAGCACCGACCTTGTGCTTTGGGAGTGCTGGTCCAAGGGCGTTAATGGACA [51-nt SARS-CoV-2 aptamer, chip form]
- binding signal [1]: 0.7 % recovery
- binding signal [2]: 3.5 % recovery
